Measurements published in US20250361280A1 (Protagonist Therapeutics, Inc., priority 2022, published 2025).

Key:
[1] = target: T1, human ferroportin (SLC40A1) fused in frame with the GFP protein, stably expressed in HEK293 cells (human) (UniProt Q9NP59); assay: cell-based or functional assay
T1 sequence (looked up): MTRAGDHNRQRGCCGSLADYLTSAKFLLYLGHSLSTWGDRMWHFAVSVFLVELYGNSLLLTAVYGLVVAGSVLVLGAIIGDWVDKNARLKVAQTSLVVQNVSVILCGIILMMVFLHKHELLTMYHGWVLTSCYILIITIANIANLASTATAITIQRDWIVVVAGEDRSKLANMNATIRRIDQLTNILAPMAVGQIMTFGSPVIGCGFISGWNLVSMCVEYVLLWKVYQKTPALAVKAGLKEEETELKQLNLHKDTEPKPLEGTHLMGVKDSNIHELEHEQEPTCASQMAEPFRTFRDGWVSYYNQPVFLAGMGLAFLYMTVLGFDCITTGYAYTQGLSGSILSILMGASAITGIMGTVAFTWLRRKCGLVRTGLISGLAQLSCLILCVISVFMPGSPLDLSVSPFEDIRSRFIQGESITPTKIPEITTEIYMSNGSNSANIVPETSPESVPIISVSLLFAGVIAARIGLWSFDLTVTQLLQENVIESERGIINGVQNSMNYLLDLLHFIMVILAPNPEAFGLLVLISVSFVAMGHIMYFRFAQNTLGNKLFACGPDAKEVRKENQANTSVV

human ferroportin = target: T2, human ferroportin (Homo sapiens, UniProt Q9NP59); assay: FPN internalization assay (FPN activity assay), loss of ferroportin-GFP fluorescence; type: cell-based; conditions: Table 5 reference compounds; value in μM; read-out: Potency EC50
T2 sequence (Q9NP59 1-571): T1 sequence (looked up)
Procedure: Peptide analogues were tested in vitro for induction of internalization of the human ferroportin protein. Following internalization, the ferroporin protein is degraded. The assay used (FPN activity assay) measures a decrease in fluorescence of the receptor.
The cDNA encoding the human ferroportin (SLC40A1) was cloned from a cDNA clone from Origene (NM_014585). The DNA encoding the ferroportin was amplified by PCR using primers also encoding terminal restriction sites for subcloning, but without the termination codon. The ferroportin receptor was subcloned into a mammalian GFP expression vector containing a neomycin (G418) resistance marker in such that the reading frame of the ferroportin was fused in frame with the GFP protein. The fidelity of the DNA encoding the protein was confirmed by DNA sequencing. HEK293 cells were used for transfection of the ferroportin-GFP receptor expression plasmid. The cells were grown according to standard protocol in growth medium and transfected with the plasmids using Lipofectamine (manufacturer's protocol, Invitrogen). […] The cells were propagated and frozen in aliquots.
Compound was added to desired final concentration for at least 18 hours in the incubator. […] Compound was added to desired final concentration for at least 18 hours but no more than 24 hours in the incubator.

## RI-Mini Hepcidin, Hy-DPhe-DIle-DCys-DIle-DPro-DPhe-DHis-DThr-DAsp-NH2 (peptide)
[1]
  Potency EC50 (nM): > 10000 nM

## CC[C@@H](C)[C@@H](NC(=O)[C@H](N)Cc1ccccc1)C(=O)N[C@H](CS)C(=O)N[C@@H](C(=O)N1CCC[C@@H]1C(=O)N[C@H](Cc1ccccc1)C(=O)N[C@H](Cc1c[nH]cn1)C(=O)N[C@@H](C(=O)N[C@H](CC(=O)O)C(N)=O)[C@H](C)O)[C@H](C)CC [RI-Mini Hepcidin, Hy-DPhe-DIle-DCys-DIle-DPro-DPhe-DHis-DThr-DAsp-NH2]
Human ferroportin
  EC50: > 10 µM

## H-DTHFPICIF-NH2 (peptide, from a related filing) [Mini-Hepcidin 1-9, Hy-…-NH2]
[1]
  Potency EC50: 0.712 µM
